In patent publication US20160376333A1 (University of Washington, published 2016):

T1: Epstein-Barr virus BHRF1 a.a. 1-161 with C-terminal avi-6his tag (Epstein-Barr virus)
T1 construct: also called EBV BHRF1; BHRF1-biotin
T1 chain: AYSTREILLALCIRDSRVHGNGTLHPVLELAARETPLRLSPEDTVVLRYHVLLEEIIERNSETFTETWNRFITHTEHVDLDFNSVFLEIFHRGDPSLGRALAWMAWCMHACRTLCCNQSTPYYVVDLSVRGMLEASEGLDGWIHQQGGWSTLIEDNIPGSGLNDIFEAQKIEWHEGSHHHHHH

T2: human Bcl-B a.a. 11-175 with C-terminal avi-6his tag (human)
T2 construct: also called BCL2L10
T2 chain: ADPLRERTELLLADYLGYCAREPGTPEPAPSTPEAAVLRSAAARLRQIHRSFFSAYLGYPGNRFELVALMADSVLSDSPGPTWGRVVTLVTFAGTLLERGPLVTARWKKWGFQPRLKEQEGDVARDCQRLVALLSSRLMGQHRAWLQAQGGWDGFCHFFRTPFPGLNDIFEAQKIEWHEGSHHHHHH

B1: Index 47 (designed binder)
chain: GWSADWIKDQAKELMLRAAEEMKKRADEEEKKFKYKQFTTEFLTKATMRWIALALMAIGDVFNVLMWALEWAKRMAKLNQYRKEELEKAKEEAKKLAEKAARRITEIGREAEQKALKG
B2: Index 15 (designed binder)
chain: GNDRDQIEEYHRERMDEELDRAKKRLEELKKLWEKLDGDDLMKFFWTFKWIAESLKIIGDLFNRLLRTWEFAEALKKGIGFDEKKAEEAKERAYERAAEAAWKAAKLSREMREFLLKG
B3: Index 67 (designed binder)
chain: GNRSEEVKELMRELAERVLLKFRWRADEMNKEKDKKYDKEELKRELTEKWIAFALDAIGDLFNAAELAKKLADLFKKGTGFLEERLERRKEEIEKLEEKGSRKVSYEGRREAEKIESG
B4: BbpD04 (designed binder)
chain: ADWKKVLDKAKDIAENRVREIKQKLEEFYKKAMKLDLTQEMRRKLMLEWIAAMLMAIGDIFNAIEQAKQEADKLKKAGQVNSQLLDELKRRLEELKEEASRKCHDYGREFQLKLEY
B5: human Bcl-w a.a. 1-182 with C-terminal avi-6his tag (other)
chain: MATPASAPDTRALVADFVGYKLRQKGYVCGAGPGEGPAADPLHQAMRAAGDEFETRFRRTFSDLAAQLHVTPGSAQQRFTQVSDELFQGGPNWGRLVAFFVFGAALCAESVNKEMEPLVGQVQEWMVAYLETQLADWIHSSGGWAEFTALYGDGALEEARRLREGNWASVRTVLTGAVALGAGLNDIFEAQKIEWHEGSHHHHHH
notes: range 1-182; also called BCL2L2
B6: human Mcl-1 a.a. 172-327 with C-terminal avi-6his tag (other)
chain: GSDELYRQSLEIISRYLREQATGAKDTKPMGRSGATSRKALETLRRVGDGVQRNHETAFQGMLRKLDIKNEDDVKSLSRVMIHVFSDGVTNWGRIVTLISFGAFVAKHLKTINQESCIEPLAESITDVLVRTKRDWLVKQRGWDGFVEFFHVEDLEGGGLNDIFEAQKIEWHEGSHHHHHH
B7: human Bfl-1 a.a. 1-153 (C4S) with C-terminal avi-6his tag (other)
chain: TDSEFGYIYRLAQDYLQCVLQIPQPGSGPSKTSRVLQNVAFSVQKEVEKNLKSCLDNVNVVSVDTARTLFNQVMEKEFEDGIINWGRIVTIFAFEGILIKKLLRQQIAPDVDTYKEISYFVAEFIMNNTGEWIRQNGGWENGFVKKFEPKSGGLNDIFEAQKIEWHEGSHHHHHH
notes: also called A1/Bfl-1
B8: 2-CDP07 (designed binder)
chain: ADPKKVLDKAKDDAENRVRELKQKLEELYKEARKLDLTQEERDELKLKAIAASLQASGDIYNAILRALEEARKLKKAGLVNSQQLDELKRRLEELAEEAQRKANKLGDEFRLKLEY
B9: 2-CDP02 (designed binder)
chain: ADPKKVLDKAKDRAENAVRELKQKLEELYKEARKLDLTQDMRNKLIMKAIAAELRAIGDIFQAILEAKAEAKKLLDAGLVNSQQFDELKRRLEELEEEAAERARKLGDEFRQKLEYG
B10: 2-CDP01 (designed binder)
chain: ADPKKVLDKAKDQAENVVRKLKQELEELYKEARKLDLTQDMREKIKLRAEAAELQAIGDIFQAILQAKMEAKKLYDAGLVNSQQLDELKRRLEELAKEAEDRAAKLGKEFLQKLEYG
B11: 2-CDP03 (designed binder)
chain: ADPKKVLDKAKDQAENRVRELKQKLEELYKEARKLDLTQEMRRELKERALAARLQAVGDIFYAILQAKSEADKLKKAGLVNSQQLDELKRRLEELAEEAQRKARDYGIEFALKLEY
B12: F-ECM04 (designed binder)
chain: ADPKKVLDKAKDQAENRVRELKQKLEELYKEARKLDLTQEMRKKLEVAALGAVLAAHGDILNAIMQAKEEADKLKKAGLVNSQQLDELKRRLEELKEEALRKASDYGKEFHLKRRYG
B13: FINDI (designed binder)
chain: ADPKKVLDKAKDQAENRVRELKQKLEELYKEARKLDLTQEKRKKLEVATLGAVLAAHGDILNAIMQAKEEADKLKKAGLVNSQQLDELKRRLEELKEEALRKASDYGNEFHLKRRY
notes: also called αBFL1
B14: F-CDP01 (designed binder)
chain: ADPKKVLDKAKDQAENRVRELKQKLEELYKEARKLDLTQEMRKKLQYAAIGAMLAAIGDILNAIMQAKQEADKLKKAGLVNSQQLDELKRRLEELKEEALRKAHDYGSEFYLKLEY
B15: 10-ECM01 (designed binder)
chain: ADPKKILDKAKDQVENRVRELKQELERLYKEARKLDLTQEMRRKLHVRYIAAMLKAIAAILNAIAQAENEADKLKKAGLVNSQQLDELRRRLEELTEEAAQKAHDYGREFQLKLEYG
B16: 10-INDI (designed binder)
chain: ADPKKILDKAKDQVENRVRELKQELERLYKEARKLDLTQEMRRKLHVRYIEAMLKAIAAIMNAIAQAENEADKLKKAGLVNSQQLDELRRRLEELTEEAAQKAHDYGRELQLKLEY
notes: also called αBCLB
B17: 10-CDP01 (designed binder)
chain: ADPKKVLDKAKDQAENRVRELKQELERLYKEARKLDLTQEMRRKLEWRYIAAMLKAIGDILNAIAQAENEADKLKKAGLVNSQQLDELRRRLEELAKEAARKAHDYGREFQLKLEY
notes: also called B-CDP01

Target: T1, Epstein-Barr virus BHRF1 a.a. 1-161 …
Experiment: yeast surface display

Binder	binding result
B1	no binding
B2	no binding
B3	no binding

Target: B6
Experiment: yeast surface display titration (apparent KD)

Binder	Kd [nM]
B4	17

target: human Bim-BH3 (a.a. 141-166) displayed on yeast (human, UniProt O43521 141-166); experiment: yeast surface display titration (apparent KD)
Sequence (O43521 141-166 limits assumed): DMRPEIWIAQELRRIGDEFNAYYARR

Binder	Kd [nM]
B5	2.1
B6	0.6
B7	2.1

target: T3, human Bcl-2 a.a. 1-207 with C-terminal avi-6his tag (human, UniProt P10415 2-207); experiment: initial BLI screening (column 'Binds target?')

Binder	binding result
B8	binds
B9	binds
B10	binds
B11	binds

Target: T1, Epstein-Barr virus BHRF1 a.a. 1-161 …
Experiment: yeast display library, FACS sort at 100 nM BHRF1, deep sequencing

Binder	Log2 enrichment ratio [log2]
B1	-3.13
B2	-2.77
B3	-3.48

Target: T1, Epstein-Barr virus BHRF1 a.a. 1-161 …
Experiment: yeast display library, FACS sort at 400 nM BHRF1, deep sequencing

Binder	Log2 enrichment ratio [log2]
B1	-2.79
B2	-0.71
B3	-3.44

target: T4, Bim-BH3 motif fused to the C-terminus of maltose-binding protein (MBP) (human, UniProt O43521 141-166); experiment: BLI, biotinylated target on streptavidin sensor, MBP-Bim-BH3 in solution
T4 construct: domain: Bim-BH3 motif; also called MBP-Bim-BH3

Binder	Kd [nM]
B5	20
B6	0.17
B7	0.61

Target: B7
Experiment: ratio of the KD of the next tightest BCL2 protein to the KD of the target, BLI

Binder	Specificity [fold]
B12	91
B13	350
B14	1.8

Target: T2, human Bcl-B a.a. 11-175 with C-terminal …
Experiment: as above

Binder	Specificity [fold]
B15	31
B16	1010
B17	0.05

target: T3, human Bcl-2 a.a. 1-207 with C-terminal …; experiment: BLI, biotinylated target on streptavidin sensor, range of analyte concentrations

Binder	Kd [nM]
B12	100
B15	12500
B13	321
B17	14
B14	20

target: B5; experiment: as above

Binder	Kd [nM]
B12	3800
B15	19000
B13	7400
B17	900
B14	590

Target: B6
Experiment: as above

Binder	Kd [nM]
B12	255
B15	3650
B13	1700
B17	0.47
B14	4.6

Target: B7
Experiment: as above

Binder	Kd [nM]	apparent Kd (pooled screen) [nM]
B12	1.1	
B15	2380	
B13	0.91	
B17	250	
B14		2.6

target: T5, human Bcl-XL a.a. 1-205 with C-terminal avi-6his tag (human, UniProt Q07817 2-206); experiment: as above
T5 construct: also called BCL2L1
T5 sequence (Q07817 other isoform, or with tags, fused parts or gaps limits assumed): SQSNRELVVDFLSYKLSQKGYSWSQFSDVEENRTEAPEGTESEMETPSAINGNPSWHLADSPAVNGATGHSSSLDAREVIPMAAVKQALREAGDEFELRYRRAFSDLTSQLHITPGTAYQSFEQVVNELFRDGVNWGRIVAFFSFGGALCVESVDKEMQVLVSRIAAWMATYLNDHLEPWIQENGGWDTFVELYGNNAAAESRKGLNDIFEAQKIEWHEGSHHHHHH

Binder	Kd [nM]
B12	540
B15	7800
B13	900
B17	16
B14	9

Target: T2, human Bcl-B a.a. 11-175 with C-terminal …
Experiment: as above

Binder	Kd [nM]	apparent Kd (pooled screen) [nM]
B12	4000	
B15	77	
B13	31000	
B17		9
B14	210000	
